Experimental data published in patent US20210147541A1 (Kyowa Kirin, published 2021).
Like-named read-outs stand apart in the source and are kept apart here.

What was measured:
[1] = target: T1, mouse CADM3 (mouse, UniProt Q99N28 23-396); experiment: flow cytometry, 10 ug/mL, mouse CADM3/Expi293F vs parent Expi293F cells
T1 construct: Full-length gene expressed transiently on Expi293F cells; also called mouse CADM3/Expi293F cells; Mouse CADM3-expressing cells
T1 sequence: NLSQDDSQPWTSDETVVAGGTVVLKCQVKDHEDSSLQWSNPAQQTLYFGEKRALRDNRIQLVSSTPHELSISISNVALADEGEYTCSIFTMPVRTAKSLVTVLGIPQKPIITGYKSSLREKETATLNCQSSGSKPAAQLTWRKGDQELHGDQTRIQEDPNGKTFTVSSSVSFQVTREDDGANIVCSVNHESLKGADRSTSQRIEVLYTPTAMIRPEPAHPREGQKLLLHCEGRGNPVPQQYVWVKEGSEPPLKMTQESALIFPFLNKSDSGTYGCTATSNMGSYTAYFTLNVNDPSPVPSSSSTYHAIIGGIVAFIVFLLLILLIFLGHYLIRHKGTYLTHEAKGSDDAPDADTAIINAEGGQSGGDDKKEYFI
Description: (§1) After washing with SB, the cells were suspended in SB, and the fluorescence intensity of each cell was measured using a flow cytometer FACS CANTO II (manufactured by Becton, Dickinson and Company). Note that as a negative control, 10 μg/mL of the anti-AVM antibody was used.
(§2) The detection results were analyzed, and a mean fluorescence intensity (MFI) was calculated using a geometric mean. Further, with respect to the MFI when the concentration of each antibody was 10 μg/mL, the ratio of the MFI (mean fluorescence intensity ratio) between the human CADM3/Expi293F cells and the Expi293F cells (parent cell line) was calculated.
Further, also with respect to AVM IgG4PE(R409K)_iCADM3_3R1-L5 dVHH, AVM IgG4PE(R409K)_iCADM3_3R1-L8 dVHH, AVM IgG4PE(R409K)_iCADM3_3R1-L10 dVHH, and AVM IgG4PE(R409K)_iCADM3_3R1-L11 dVHH, reactivity with the Expi293F cells, the human CADM3/Expi293F cells, and the mouse CADM3/Expi293F cells was analyzed by the same procedure, and the results are shown in Table 5.

[2] = target: T1, mouse CADM3; experiment: as above; remark: listed apart in the source
Description: as §1, §2
(§3) With respect to the produced humanized anti-CADM3 VHH-Fc antibodies, reactivity with Expi293F cells, human CADM3/Expi293F cells, and mouse CADM3/Expi293F cells was analyzed by the same procedure as in Example 3.

[3] = target: T2, human CADM3 (human, UniProt Q8N126 25-398); experiment: flow cytometry, 10 ug/mL, human CADM3/Expi293F vs parent Expi293F cells
T2 construct: Full-length gene expressed transiently on Expi293F cells; also called cell adhesion molecule 3; human CADM3/Expi293F cells
T2 sequence: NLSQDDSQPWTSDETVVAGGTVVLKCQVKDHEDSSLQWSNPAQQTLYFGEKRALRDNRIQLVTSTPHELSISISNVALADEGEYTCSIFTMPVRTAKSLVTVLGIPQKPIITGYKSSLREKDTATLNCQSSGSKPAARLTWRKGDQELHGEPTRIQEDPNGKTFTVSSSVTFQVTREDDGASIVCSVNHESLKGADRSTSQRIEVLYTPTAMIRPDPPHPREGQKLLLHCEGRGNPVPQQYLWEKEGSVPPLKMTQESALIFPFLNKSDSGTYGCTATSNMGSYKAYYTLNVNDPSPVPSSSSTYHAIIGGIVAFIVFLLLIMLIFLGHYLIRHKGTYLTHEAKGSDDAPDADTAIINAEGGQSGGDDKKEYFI
Description: as §1, §2, §3

[4] = target: T3, mCADM3-GST (mouse); experiment: SPR (Biacore T-100), antibody captured, mCADM3-GST as analyte
T3 construct: also called extracellular domain of mouse CADM3 to which GST was added at the C-terminal side; mouse CADM3-GST
Description: (§4) The affinity of the anti-CADM3 antibodies produced in Example 2 for human CADM3 and mouse CADM3 was measured using Biacore T-100 (GE Healthcare). Each of the antibodies was immobilized on a […] sensor chip using a Human antibody Capture kit, and the binding ability was evaluated using hCADM3-GST and mCADM3-GST produced in Example 4 as analytes.
(§5) The obtained sensorgram was analyzed with BIA evaluation software, and the dissociation constant (KD value) was calculated.

[5] = target: T4, hCADM3-GST (human); experiment: SPR (Biacore T-100), antibody captured, hCADM3-GST as analyte
T4 construct: also called extracellular domain of human CADM3 to which GST was added at the C-terminal side; human CADM3-GST
Description: as §4, §5

[6] = target: T2, human CADM3; experiment: flow cytometry, 10 ug/mL, human CADM3/Expi293F vs parent Expi293F cells; remark: listed apart in the source
Description: By using the cells, the reactivity of the antibodies produced in Example 2 with the CADM3-expressing cells was analyzed by a fluorescence activated cell sorting (FACS) method according to the following procedure.
as §1, §2

[7] = target: T1, mouse CADM3; experiment: flow cytometry, 10 ug/mL, mouse CADM3/Expi293F vs parent Expi293F cells; remark: listed apart in the source
[8] = target: T3, mCADM3-GST; experiment: SPR (Biacore T-100), antibody captured, mCADM3-GST as analyte; remark: listed apart in the source
Description: as §4
(§6) With respect to the produced humanized anti-CADM3 antibodies, affinity for CADM3 by surface plasmon resonance detection was evaluated by the same procedure as in Example 6.

[9] = target: T4, hCADM3-GST; experiment: SPR (Biacore T-100), antibody captured, hCADM3-GST as analyte; remark: listed apart in the source
Description: as §4, §6

[10] = target: T1, mouse CADM3; experiment: flow cytometry, 10 ug/mL, mouse CADM3/Expi293F vs parent Expi293F cells; remark: listed apart in the source
Description: as §1, §2, §3

B1: AVM IgG4PE(R409K)_iCADM3_3R1-L5 dVHH (bispecific antibody)
heavy: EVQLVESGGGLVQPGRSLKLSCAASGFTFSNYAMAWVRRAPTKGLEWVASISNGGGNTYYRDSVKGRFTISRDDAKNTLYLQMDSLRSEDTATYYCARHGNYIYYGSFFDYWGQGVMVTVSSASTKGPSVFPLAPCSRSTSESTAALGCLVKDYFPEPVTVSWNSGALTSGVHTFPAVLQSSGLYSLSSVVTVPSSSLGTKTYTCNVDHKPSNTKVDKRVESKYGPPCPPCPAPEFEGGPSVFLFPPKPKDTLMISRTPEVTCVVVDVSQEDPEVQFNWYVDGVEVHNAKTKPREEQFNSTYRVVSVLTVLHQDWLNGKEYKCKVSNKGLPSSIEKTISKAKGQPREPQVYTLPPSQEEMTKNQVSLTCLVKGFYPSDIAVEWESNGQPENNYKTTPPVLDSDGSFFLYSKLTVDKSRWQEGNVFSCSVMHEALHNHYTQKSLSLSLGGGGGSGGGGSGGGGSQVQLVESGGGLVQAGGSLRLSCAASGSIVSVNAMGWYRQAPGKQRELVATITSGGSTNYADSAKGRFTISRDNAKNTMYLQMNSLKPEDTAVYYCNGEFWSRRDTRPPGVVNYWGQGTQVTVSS
light: QFVLSQPNSVSTNLGSTVKLSCKRSTGNIGSNYVSWYQQHEGRSPTTMIYRDDKRPDGVPDRFSGSIDRSSDSALLTINNVQTEDEADYFCQSYSSGINIFGGGTKLTVLGQPKAAPSVTLFPPSSEELQANKATLVCLISDFYPGAVTVAWKADSSPVKAGVETTTPSKQSNNKYAASSYLSLTPEQWKSHRSYSCQVTHEGSTVEKTVAPTECS
notes: also called anti-AVM-IgG4-CADM3 VHH bispecific antibody
Mean fluorescence intensity ratio [1]: 1.96

B2: AVM IgG4PE(R409K)_iCADM3_3R1-L8 dVHH (bispecific antibody)
heavy: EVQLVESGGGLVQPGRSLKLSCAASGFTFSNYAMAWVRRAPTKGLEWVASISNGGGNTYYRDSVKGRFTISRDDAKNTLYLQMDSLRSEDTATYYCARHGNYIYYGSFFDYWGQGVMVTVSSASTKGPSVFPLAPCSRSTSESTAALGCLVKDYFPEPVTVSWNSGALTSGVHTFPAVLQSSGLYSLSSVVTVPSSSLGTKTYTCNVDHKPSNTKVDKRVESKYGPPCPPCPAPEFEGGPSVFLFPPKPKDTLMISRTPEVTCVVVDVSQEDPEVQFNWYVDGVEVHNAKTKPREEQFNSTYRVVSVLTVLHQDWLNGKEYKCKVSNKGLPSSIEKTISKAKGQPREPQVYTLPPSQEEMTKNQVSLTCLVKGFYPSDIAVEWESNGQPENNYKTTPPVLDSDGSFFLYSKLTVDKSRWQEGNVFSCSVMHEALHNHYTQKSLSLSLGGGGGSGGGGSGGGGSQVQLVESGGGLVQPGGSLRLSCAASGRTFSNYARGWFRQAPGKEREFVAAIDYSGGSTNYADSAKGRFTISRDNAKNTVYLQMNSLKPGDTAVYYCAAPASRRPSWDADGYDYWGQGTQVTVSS
light: QFVLSQPNSVSTNLGSTVKLSCKRSTGNIGSNYVSWYQQHEGRSPTTMIYRDDKRPDGVPDRFSGSIDRSSDSALLTINNVQTEDEADYFCQSYSSGINIFGGGTKLTVLGQPKAAPSVTLFPPSSEELQANKATLVCLISDFYPGAVTVAWKADSSPVKAGVETTTPSKQSNNKYAASSYLSLTPEQWKSHRSYSCQVTHEGSTVEKTVAPTECS
notes: as for B1
Mean fluorescence intensity ratio [1]: 3.65

B3: AVM IgG4PE(R409K)_iCADM3_3R1-L10 dVHH (bispecific antibody)
heavy: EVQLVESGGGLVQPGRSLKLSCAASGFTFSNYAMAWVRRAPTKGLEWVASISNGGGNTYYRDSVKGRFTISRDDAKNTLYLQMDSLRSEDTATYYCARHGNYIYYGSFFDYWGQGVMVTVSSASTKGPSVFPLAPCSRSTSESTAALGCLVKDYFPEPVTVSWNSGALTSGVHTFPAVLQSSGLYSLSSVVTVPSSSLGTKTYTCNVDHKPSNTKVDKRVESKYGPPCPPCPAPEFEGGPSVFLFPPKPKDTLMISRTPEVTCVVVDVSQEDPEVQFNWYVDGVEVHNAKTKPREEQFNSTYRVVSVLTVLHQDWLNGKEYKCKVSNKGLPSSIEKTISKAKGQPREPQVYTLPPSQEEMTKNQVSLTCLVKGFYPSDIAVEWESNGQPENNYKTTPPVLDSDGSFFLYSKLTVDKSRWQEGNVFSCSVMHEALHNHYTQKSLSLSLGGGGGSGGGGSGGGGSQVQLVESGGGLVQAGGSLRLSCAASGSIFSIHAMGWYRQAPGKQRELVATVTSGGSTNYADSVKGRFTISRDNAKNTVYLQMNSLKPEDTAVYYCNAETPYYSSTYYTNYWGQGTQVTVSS
light: QFVLSQPNSVSTNLGSTVKLSCKRSTGNIGSNYVSWYQQHEGRSPTTMIYRDDKRPDGVPDRFSGSIDRSSDSALLTINNVQTEDEADYFCQSYSSGINIFGGGTKLTVLGQPKAAPSVTLFPPSSEELQANKATLVCLISDFYPGAVTVAWKADSSPVKAGVETTTPSKQSNNKYAASSYLSLTPEQWKSHRSYSCQVTHEGSTVEKTVAPTECS
notes: as for B1
Mean fluorescence intensity ratio [1]: 1.78

B4: AVM IgG4PE(R409K)_iCADM3_3R1-L11 dVHH (bispecific antibody)
heavy: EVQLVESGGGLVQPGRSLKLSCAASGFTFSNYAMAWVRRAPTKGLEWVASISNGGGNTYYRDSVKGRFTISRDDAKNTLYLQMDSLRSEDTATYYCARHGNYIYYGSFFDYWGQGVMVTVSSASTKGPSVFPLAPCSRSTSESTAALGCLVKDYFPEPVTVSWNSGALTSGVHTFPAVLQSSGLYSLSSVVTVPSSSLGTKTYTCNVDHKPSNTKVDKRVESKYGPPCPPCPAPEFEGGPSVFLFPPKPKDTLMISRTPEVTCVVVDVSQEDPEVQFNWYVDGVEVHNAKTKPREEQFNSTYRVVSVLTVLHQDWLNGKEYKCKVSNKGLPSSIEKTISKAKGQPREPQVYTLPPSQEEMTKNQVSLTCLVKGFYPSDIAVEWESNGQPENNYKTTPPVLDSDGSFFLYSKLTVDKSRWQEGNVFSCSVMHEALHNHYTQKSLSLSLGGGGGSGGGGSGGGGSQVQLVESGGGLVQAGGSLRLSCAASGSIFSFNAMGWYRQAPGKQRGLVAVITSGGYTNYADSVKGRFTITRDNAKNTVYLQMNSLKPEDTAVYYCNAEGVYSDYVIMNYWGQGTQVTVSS
light: QFVLSQPNSVSTNLGSTVKLSCKRSTGNIGSNYVSWYQQHEGRSPTTMIYRDDKRPDGVPDRFSGSIDRSSDSALLTINNVQTEDEADYFCQSYSSGINIFGGGTKLTVLGQPKAAPSVTLFPPSSEELQANKATLVCLISDFYPGAVTVAWKADSSPVKAGVETTTPSKQSNNKYAASSYLSLTPEQWKSHRSYSCQVTHEGSTVEKTVAPTECS
notes: as for B1
Mean fluorescence intensity ratio [1]: 4.66

B5: iCADM3_3R1-L11_02 VHH-hG4PE(R409K) (Fc fusion)
chain: EVQLVESGGGLIQPGGSLRLSCAASGSTVSFNAMGWYRQAPGKGRVLVAVITSGGYTNYADSVKGRFTISRDNSKNTVYLQMNSLRAEDTAVYYCNAEGVYSDYVIMNYWGQGTLVTVSS
notes: also called iCADM3-3R1-L11_02 humanized antibody; not shown: Hinge-CH2-CH3 region of the human IgG4 heavy chain constant region (IgG4 variant)
Mean fluorescence intensity ratio [2]: 27.9 | Mean fluorescence intensity ratio [3]: 12.4

B6: iCADM3_3R1-L11_01 VHH-hG4PE(R409K) (Fc fusion)
chain: EVQLVESGGGLIQPGGSLRLSCAASGSTVSFNAMGWYRQAPGKGLGLVAVITSGGYTNYADSVKGRFTISRDNSKNTLFLQMNSLRAEDTAVYYCNAEGVYSDYVIMNYWGQGTLVTVSS
notes: also called iCADM3-3R1-L11_01 humanized antibody; not shown: Hinge-CH2-CH3 region of the human IgG4 heavy chain constant region (IgG4 variant)
Mean fluorescence intensity ratio [2]: 12.5 | Mean fluorescence intensity ratio [3]: 12.2

B7: iCADM3_3R1-L11_03 VHH-hG4PE(R409K) (Fc fusion)
chain: EVQLVESGGGLIQPGGSLRLSCAASGSTVSFNAMGWYRQAPGKQRGLVSVITSGGYTNYADSVKGRFTISRDNSKNTVYLQMNSLRAEDTAVYYCNAEGVYSDYVIMNYWGQGTLVTVSS
notes: also called iCADM3-3R1-L11_03 humanized antibody; not shown: Hinge-CH2-CH3 region of the human IgG4 heavy chain constant region (IgG4 variant)
Mean fluorescence intensity ratio [2]: 33.8 | Mean fluorescence intensity ratio [3]: 24.4

B8: iCADM3_3R1-L11_04 VHH-hG4PE(R409K) (Fc fusion)
chain: EVQLVESGGGLIQAGGSLRLSCAASGSIVSFNAMGWYRQAPGKQRGLVAVITSGGYTNYADSVKGRFTISRDNSKNTLFLQMNSLRAEDTAVYYCNAEGVYSDYVIMNYWGQGTLVTVSS
notes: also called iCADM3-3R1-L11_04 humanized antibody; not shown: Hinge-CH2-CH3 region of the human IgG4 heavy chain constant region (IgG4 variant)
Mean fluorescence intensity ratio [2]: 26.7 | Mean fluorescence intensity ratio [3]: 22.5

B9: iCADM3_3R1-L11_05 VHH-hG4PE(R409K) (Fc fusion)
chain: EVQLVESGGGLIQPGGSLRLSCAASGSIFSFNAMGWYRQAPGKGRVLVAVITSGGYTNYADSVKGRFTISRDNSKNTVYLQMNSLRAEDTAVYYCNAEGVYSDYVIMNYWGQGTLVTVSS
notes: also called iCADM3-3R1-L11_05 humanized antibody; not shown: Hinge-CH2-CH3 region of the human IgG4 heavy chain constant region (IgG4 variant)
Mean fluorescence intensity ratio [2]: 24.6 | Mean fluorescence intensity ratio [3]: 11.1

B10: iCADM3_3R1-L11_06 VHH-hG4PE(R409K) (Fc fusion)
chain: QVQLVESGGGLVQAGGSLRLSCAASGSIFSFNAMGWYRQAPGKQRGLVAVITSGGYTNYADSVKGRFTISRDNSKNTVFLQMNSLRAEDTAVYYCNAEGVYSDYVIMNYWGQGTLVTVSS
notes: also called iCADM3-3R1-L11_06 humanized antibody; not shown: Hinge-CH2-CH3 region of the human IgG4 heavy chain constant region (IgG4 variant)
Mean fluorescence intensity ratio [2]: 42.2 | Mean fluorescence intensity ratio [3]: 33

B11: CADM3448 hG4PE(R409K) (antibody, V domains shown)
VH: QVQLQQSGPGLVKPAQTLSLTCAISGDSVSSNSVAWNWVRQSPSRGLEWLGRTYYRSQWYNDYAGSVRSRITISADTSKNQFSLQLNSVTPEDTALYYCVRANRKLPAPGQHFYYGMDVWGQGTTVTVSS
VL: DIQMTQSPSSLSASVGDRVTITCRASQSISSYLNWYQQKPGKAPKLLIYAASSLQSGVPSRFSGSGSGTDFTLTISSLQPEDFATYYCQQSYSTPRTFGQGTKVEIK
notes: Human IgG4 variant (S228P, L235E, R409K), vector pCI-hKG4PE(R409K)
binding result [4]: binds | binding result [5]: binds | Mean fluorescence intensity ratio [6]: 9.4 | Mean fluorescence intensity ratio [7]: 10.4

B12: CADM3501 hG4PE(R409K) (antibody, V domains shown)
VH: EVQLVESGGGLVQPGGALRLSCSASGFTFSGYWMHWVRQAPGKGLEWVSQISSSGTIIDSADFVKGRFAVSRDNAKDLLYLQMNSLRADDTAVYYCARGPLAKNGFDIWGQGTMVTVSS
VL: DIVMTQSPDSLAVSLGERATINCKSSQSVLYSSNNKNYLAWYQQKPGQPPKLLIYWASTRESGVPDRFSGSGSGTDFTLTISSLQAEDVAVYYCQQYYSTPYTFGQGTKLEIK
notes: as for B11
binding result [4]: binds | binding result [5]: binds | Mean fluorescence intensity ratio [6]: 44.9 | Mean fluorescence intensity ratio [7]: 36.1

B13: iCADM3_3R1-L8 VHH-hG4PE(R409K) (Fc fusion)
chain: QVQLVESGGGLVQPGGSLRLSCAASGRTFSNYARGWFRQAPGKEREFVAAIDYSGGSTNYADSAKGRFTISRDNAKNTVYLQMNSLKPGDTAVYYCAAPASRRPSWDADGYDYWGQGTQVTVSS
notes: VHH-Fc antibody; also called anti-CADM3 VHH-Fc antibody iCADM3_3R1-L8; not shown: Hinge-CH2-CH3 region of the human IgG4 heavy chain constant region (IgG4 variant)
Kd [8]: 4.39 nM | koff [8]: 0.00063 s⁻¹ | kon [8]: 140000 M⁻¹ s⁻¹ | Kd [9]: 12.5 nM | koff [9]: 0.00051 s⁻¹ | kon [9]: 41000 M⁻¹ s⁻¹ | Mean fluorescence intensity ratio [6]: 5.84 | Mean fluorescence intensity ratio [7]: 8.2

B14: iCADM3_3R1-L8_01 VHH-hG4PE(R409K) (Fc fusion)
chain: QVQLVQSGGGLVQPGGSLRLSCAASGRTFSNYARGWFRQAPGKGREFVAAIDYSGGSTNYADSAKGRFTISRDNSKNTLYLQMNSLRAEDTAVYYCAAPASRRPSWDADGYDYWGQGTLVTVSS
notes: also called iCADM3-3R1-L8_01 humanized antibody; not shown: Hinge-CH2-CH3 region of the human IgG4 heavy chain constant region (IgG4 variant)
Mean fluorescence intensity ratio [3]: 2.21 | Mean fluorescence intensity ratio [10]: 3.71

B15: iCADM3_3R1-L8_02 VHH-hG4PE(R409K) (Fc fusion)
chain: QVQLVQSGGGLVQPGGSLRLSCAASGRTFSNYARGWFRQAPGKEREFVAAIDYSGGSTNYADSAKGRFTISRDNSKNTLYLQMNSLRAEDTAVYYCAAPASRRPSWDADGYDYWGQGTLVTVSS
notes: also called iCADM3-3R1-L8_02 humanized antibody; not shown: Hinge-CH2-CH3 region of the human IgG4 heavy chain constant region (IgG4 variant)
Mean fluorescence intensity ratio [3]: 2.8 | Mean fluorescence intensity ratio [10]: 4.83
